Assay results published in patent US9937265B2, “Self-assembling peptide and polysaccharide complexes” (University of Leeds, priority 2013, dated 2018).

Tests used:
Type in all cases: physicochemical
[1] = Visual observation of gelation of peptide and peptide:GAG samples (systematic mixing study); conditions: for Gel appearance: 20 mg/ml (Table 3); for Time to gel 20 mg/ml / self-assembly and gelation / time to form a self-supporting gel (gelation time) / Gel lifetime 20 mg/ml: 20 mg/ml peptide; for c*gel: peptide alone
Experimental: Preparation of Peptide Solutions
Solutions of peptides were prepared directly in either D2O or H2O containing either 130 or 200 mM NaCl or PBS. Peptide concentrations in the millimolar range given for the NMR studies were values multiplied by an appropriate factor to account for the actual percentage peptide content. The samples were vortexed for 20 seconds, and then sonicated for 15 minutes. Solution pD was measured and adjusted to either 7.4 or 6.0±0.5 using a calibrated pH meter and the relation pD =pH meter reading +0.417. Any adjustment of pD, if necessary, was made with minimal μL volumes of either HCl or DCl and/or either NaOH or NaOD. Finally, solution vials were closed, sealed with PTFE tape, and then warmed to approximately 80° C. to maximise peptide solubility. Solutions were left to equilibrate at room temperature.
Preparation of Peptide:Glycosaminoglycan Gels.
The concentration of peptide was kept constant for each sample (20 mg/ml) and the molar ratio of GAG subunit to one peptide was increased. The samples were named by the number of GAG subunits to each peptide present e.g. P11-12:GAG 1:10=one P11-12 peptide monomer to ten GAG dimer subunits. GAG was added to peptide solutions after preparation as stated above. The mixtures were vortexed as heated again to ensure complete mixing.
The effects of mixing chondroitin sulphate GAG with the peptides were investigated. It was hypothesised that the charged GAG chains would interact electrostatically with the charged peptides. To establish whether such an interaction was possible, visual observations of a systematic mixing study was carried out and the morphology of the aggregates formed during mixing studied using TEM. • P11-4: […]

[2] = High resolution 1H-NMR study of peptide self-assembly as a function of concentration and time (c*); conditions: for c*: critical concentration for aggregation, physiological-like solution, with GAG estimated from monomer level at ~5000 μM total peptide
Experimental: High Resolution ^1H-NMR Study of Peptide Self-Assembly as a Function of Concentration
(2,2,3,3-d4)-trimethylsilyl-3-propionic acid (TMSP, chemical shift 0 ppm) an internal reference standard was added to all peptide solutions. NMR data were acquired at room temperature. A pre-saturation program was used to minimize the water peak, and 1024 scans were measured per spectrum. Sample spectra were recorded at various time-points after preparation to ensure the solutions had reached stable equilibrium. The aromatic multiplet at chemical shift 6.9-7.8 ppm was integrated, relative to the reference peak.
High resolution solution ^1H NMR was used to follow the self-assembly of the peptides in physiological-like solutions as a function of time. To measure self-assembly, the line width broadening of the NMR spectra is exploited. The population of peptide in an aggregated state gives rise to spectra that are so broad that they are lost in the baseline; in contrast, the population of peptide in monomeric state gives rise to high resolution spectra. By integrating the splitting pattern arising from the aromatic region and normalising it with respect to the peak observed due to a known standard, the fraction of monomer can be estimated.

[3] = Rheological study of peptide and peptide:glycosaminoglycan gels (amplitude and frequency sweeps); conditions: for G′ at 2 Hz 20 mg/ml / G″ at 2 Hz 20 mg/ml: 2 Hz (walking frequency); for G′ at 2 Hz 20 mg/ml / G″ at 2 Hz 20 mg/ml / plateau elastic modulus G′N°: 25° C.; for J, lower limit of the distance between nearest cross links: calculated from plateau elastic modulus by rubber-like elasticity theory, T=298K; for plateau elastic modulus G′N° / Phase angle: peptide gels in PBS at 20 mg/ml; for Phase angle: 25° C. (Table 2)
Experimental: Rheological Study of Peptide:Glycosaminoglycan Gels
Measurements were performed using a cone-plate geometry (cone angle: 1°, diameter: 50 mm, gap: 0.033 mm). All the tests were performed at 25° C., utilizing a solvent trap and the atmosphere within was kept saturated to minimize evaporation of the peptide samples. To ensure the measurements were made in the linear viscoelastic regime (LVER), amplitude sweeps were performed in a shear strain controlled mode from 0.01-100%. Two amplitude sweeps were carried out for each sample (1 Hz and 20 Hz) and a strain level was chosen at which the elastic modulus (G′) and viscous modulus (G″) were independent of strain amplitude at the two different frequency levels. The dynamic moduli of the hydrogels were measured as a frequency function with the sweeps carried out between 1 and 20 Hz. Samples were allowed to equilibrate for 15 minutes once loaded prior to the start of testing. Fresh samples were used for the amplitude and frequency sweeps. After the frequency sweeps, two more amplitude weeps (1 Hz and 20 Hz) were carried out in a stress controlled mode to confirm the testing was performed within the LVER. The stress range was chosen based on the stress values from the frequency sweeps at 1 and 20 Hz: if these two values were then independent of stress amplitude, then this confirmed that testing was within the LVER.
Tests were conducted to provide a peptide gel of similar stiffness to that of the nucleus pulposus. Rheometry was carried out on the peptide gels in PBS at 20 mg/ml. Amplitude sweeps were first carried out to determine the LVER region.
The rheological properties of the peptide:GAG samples were examined and compared to the rheological properties of peptides alone to establish how the addition of GAG affected the material properties of the gels. The frequency sweeps from the study (data not shown) for the various peptide:GAG combinations can be summarized as follows: P11-4: GAG and viscous modulus vs. frequency, starting frequency 1 Hz, end frequency: 20 Hz, strain controlled: 0.15% (control), 0.175% (1:2) and 0.04% (1:10). Temp: 25° C. 20 days old. P11-8:GAG elastic and viscous modulus vs. frequency, starting frequency 1 Hz, end frequency: 20 Hz, Strain controlled: 0.1% (1:2 and 1:10), Temp: 25° C., 1.5 months old. P11-9:GAG elastic and viscous modulus vs. frequency, starting frequency 1 Hz, end frequency: 20 Hz, Strain controlled: 0.5%, Temp: 25° C. P11-12:GAG Elastic and viscous modulus vs. frequency, starting frequency 1 Hz, end frequency: 20 Hz, Strain controlled: 0.25% (1:0.5), 0.1% (1:2), 0.05% (1:10), 0.15% (1:100), Temp: 25° C. 1:0.5, 1:2 and 1:10 2 months old and 1:100 6 days old. • P11-4: […]

[4] = Peptide dissolution from gel into supernatant (UV spectroscopy, 279 nm); conditions: at 3-4 days, 20 mg/ml gel
Experimental: 2.5 ml of 130 mM NaCl, D2O, pD 7.4 supernatant was added on top of the SAP:GAG gels. The concentration of peptide dissolved into the supernatant as a function of time was determined via UV spectroscopy. The UV wavelength of 279 nm corresponds to the […] of the tryptophan residue, found in position 6 of the SAP, and so this can be used to determine the molar concentration of the peptide taking into account the molar extinction coefficient of the tryptophan residue.

Substance | Gel appearance [1] | Time to gel 20 mg/ml [1] | self-assembly and gelation [1] | c* [2] | G′ at 2 Hz 20 mg/ml [3] | G″ at 2 Hz 20 mg/ml [3] | time to form a self-supporting gel (gelation time) [1] | Gel lifetime 20 mg/ml ([1]; unit in cell beside) | c*gel [1] | J, lower limit of the distance between nearest cross links [3] | plateau elastic modulus G′N° [3] | Phase angle [3] | Gel lifetime 20 mg/ml ([1]; yr and mths or words printed in the cell) | gel state on storage ([1]; after a year) | gel stiffness / moduli compared, in words ([3]; frequency sweeps, compared with peptide alone or other gels) | peptide dissolved from the gel [4] | time to reach equilibrium state of self-assembly ([2]; 1H NMR aromatic integral vs time, without GAG)
CH3CO-O-Q-O-F-O-W-O-F-O-Q-O-NH2 [Peptide P11-28] | Clear liquid | never | does not self-assemble | >3100 µM | – | – | – | – | – | – | – | – | – | – | – | – | –
CH3CO-Q-Q-O-F-O-W-O-F-O-Q-Q-NH2 (QQXFXWXFXQQ; HELM PEPTIDE1{[ac].Q.Q.[Orn].F.[Orn].W.[Orn].F.[Orn].Q.Q.[am]}$$$$V2.0; SMILES CC(=O)N[C@@H](CCC(N)=O)C(=O)N[C@@H](CCC(N)=O)C(=O)N[C@@H](CCCN)C(=O)N[C@@H](Cc1ccccc1)C(=O)N[C@@H](CCCN)C(=O)N[C@@H](Cc1c[nH]c2ccccc12)C(=O)N[C@@H](CCCN)C(=O)N[C@@H](Cc1ccccc1)C(=O)N[C@@H](CCCN)C(=O)N[C@@H](CCC(N)=O)C(=O)N[C@@H](CCC(N)=O)C(N)=O) [Peptide P11-14] | Clear liquid | never | does not self-assemble | >3600 µM | – | – | – | – | – | – | – | – | – | – | – | – | –
CH3CO-Q-Q-R-F-E-W-E-F-E-Q-Q-NH2 (Ac-QQRFEWEFEQQ-NH2) [Peptide P11-4] | Slightly cloudy | mins-hours | – | 310 ± 140 µM | 1,065 Pa | 205 Pa | hours | >1 mth | 2000 ± 600 µM | – | – | – | – | – | – | – | –
CH3CO-Q-Q-R-F-O-W-O-F-E-Q-Q-NH2 (QQRFXWXFEQQ; HELM PEPTIDE1{[ac].Q.Q.R.F.[Orn].W.[Orn].F.E.Q.Q.[am]}$$$$V2.0; SMILES CC(=O)N[C@@H](CCC(N)=O)C(=O)N[C@@H](CCC(N)=O)C(=O)N[C@@H](CCCNC(=N)N)C(=O)N[C@@H](Cc1ccccc1)C(=O)N[C@@H](CCCN)C(=O)N[C@@H](Cc1c[nH]c2ccccc12)C(=O)N[C@@H](CCCN)C(=O)N[C@@H](Cc1ccccc1)C(=O)N[C@@H](CCC(=O)O)C(=O)N[C@@H](CCC(N)=O)C(=O)N[C@@H](CCC(N)=O)C(N)=O) [Peptide P11-8] | Inhomogenous | days | – | 400 ± 100 µM | 4,881 Pa | 552 Pa | days | – | 2000 ± 600 µM | 11.6 nm | 5,221 kg m^−1s^−2 | ~8° | Still some self- | – | – | – | –
CH3CO-S-S-R-F-E-W-E-F-E-S-S-NH2 (Ac-SSRFEWEFESS-NH2) [Peptide P11-9] | Clear self- | minutes | – | 1160 ± 175 µM | 8 Pa | 5 Pa | minutes | – | 4500 ± 1500 µM | – | – | – | – | still a self-supporting gel | – | – | –
CH3CO-S-S-R-F-O-W-O-F-E-S-S-NH2 (SSRFXWXFESS; HELM PEPTIDE1{[ac].S.S.R.F.[Orn].W.[Orn].F.E.S.S.[am]}$$$$V2.0; SMILES CC(=O)N[C@@H](CO)C(=O)N[C@@H](CO)C(=O)N[C@@H](CCCNC(=N)N)C(=O)N[C@@H](Cc1ccccc1)C(=O)N[C@@H](CCCN)C(=O)N[C@@H](Cc1c[nH]c2ccccc12)C(=O)N[C@@H](CCCN)C(=O)N[C@@H](Cc1ccccc1)C(=O)N[C@@H](CCC(=O)O)C(=O)N[C@@H](CO)C(=O)N[C@@H](CO)C(N)=O) [Peptide P11-12] | Cloudy self- | minutes | – | 2300 ± 750 µM | 20,510 Pa | 3067 Pa | minutes | – | 2300 ± 750 µM | 7.2 nm | 22,285 kg m^−1s^−2 | ~9° | – | – | forms the stiffest gel | 39.9±9.15% | around 1 month
